Literature values, collected in PMC12114883.

Molecular target: CLV1 (Arabidopsis thaliana) (UniProt Q9SYQ8)
Chain of UniProt Q9SYQ8 (Q9SYQ8 25-638): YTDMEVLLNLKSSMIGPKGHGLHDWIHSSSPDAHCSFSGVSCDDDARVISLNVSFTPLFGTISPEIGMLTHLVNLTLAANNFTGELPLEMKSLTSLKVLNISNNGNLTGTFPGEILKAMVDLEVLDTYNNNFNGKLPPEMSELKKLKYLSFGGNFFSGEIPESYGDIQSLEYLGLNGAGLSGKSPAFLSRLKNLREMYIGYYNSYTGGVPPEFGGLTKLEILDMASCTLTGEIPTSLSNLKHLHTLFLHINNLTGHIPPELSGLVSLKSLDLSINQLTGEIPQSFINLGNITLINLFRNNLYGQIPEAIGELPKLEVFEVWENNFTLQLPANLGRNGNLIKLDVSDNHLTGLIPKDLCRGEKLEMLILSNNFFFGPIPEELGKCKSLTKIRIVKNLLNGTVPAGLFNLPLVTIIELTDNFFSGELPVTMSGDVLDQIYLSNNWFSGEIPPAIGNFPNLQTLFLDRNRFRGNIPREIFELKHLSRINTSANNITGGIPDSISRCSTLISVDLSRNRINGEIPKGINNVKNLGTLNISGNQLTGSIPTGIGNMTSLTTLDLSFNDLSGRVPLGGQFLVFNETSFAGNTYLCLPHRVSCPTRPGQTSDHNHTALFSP

CLV3 (from UniProt Q9XF04)
Kd: 17.5 nM
